Reference: patent US20230303685A1

Tests used:
[1] = biological target: human SIRPα on hSIRPα-expressing cells (human) (UniProt P78324); experiment: flow cytometry, stably transfected CHO cells, antibody titrated, labelled anti-rat or anti-mouse IgG, MFI
[2] = biological target: human SIRPα on hSIRPα-expressing cells (human) (UniProt P78324); experiment: flow cytometry, stably transfected CHO cells, antibody titrated, labelled anti-human IgG, MFI

EC50 (read off the curve) [1]	EC50 (read off the curve) [2]	Binder
0.1 µg/mL		Antibody 11 (antibody, V domains shown) VH: EVQLVESGGGLVQPGGSLRLSCAASGFTFSSYWMHWVRQAPGKGLVWVSRIHNDGSRTSYADSVKGRFTISRDNAKNTLYLQMSSLRAEDTAVYYCTRDPPPYDILTGYPFDYWGQGTLVTVSS VL: DIQMTQSPSSVSASVGDRVTITCRASQDISSWLAWFQQKPGKAPKLLIYGASSLQSGVPSRFSGSGSGTDFTLTISSLQPEDFATYYCQEANSFPYTFGQGTKLEIK
	0.2 µg/mL	Antibody 28 (antibody, V domains shown) VH: QVQLQESGPGLVKPSGTLSLTCAVSGGSISSSNWWSWVRQPPGKGLEWIGEIYHSGSTNYNPSLKSRVTISVDKSKNQFSLKLSSVTAADTAVYYCARRGIWFGVGPWGQGTLVTVSS VL: DIVMTQSPLSLPVTPGEPASISCRSSQSLLHGNGFNYLDWYLQKPGQSPQLLIYLGSNRASGVPDRFTGSGSGTDFTLKISRVEAEDVGVYYCMQGLQTPRTFGQGTKVEIK
1 µg/mL		Antibody 4 (antibody, V domains shown) VH: QVQLQESGPGLLKPSETLSLTCAVSDYSISSGYYWGWIRQPPGKGLEWIGSIYHSGNTYYNPSLKSRVTILVDTSKNQFSLKLSSVTAADTAVYYCARDKCSTTTCSFDYWGQGTLVTVSS VL: DIQMTQSPSSLSASVGDRVTITCQASQDFSNYLNWYQQKPGKAPKLLIYAASNLETGVPSRFSGSGSGTDFTFTISSLQPEDIAVYYCQQYDNLPYTFGQGTKLEIK
